Measured values reported in paper PMC10720262 (2023).
Where a chain is given by its changes, count along the chain named.

B1: CL-512206 (antibody, V domains shown)
VH: QVQLVESGGGVVQPGRSLRLSCAASGFTFSHYGMHWVRQAPGKGLEWVAVIWYDGNNKFYADSVKGRFTISRDNSNNTLYLQMNSLRAEDTAVYHCVRERTGATSRGFDFWGQGTLVTVSS
VL: QSVLTQPPSVSAAPGQKVTISCSGSDSNIEKYYVSWYQQLPGSAPKLLIYDNNKRPSGIPDRFSGSKSGTSATLGITGLQTGDEAVYYCGTWDSSLSTGVFGGGTKLTVL
modifications: peptides N-terminally acetylated and C-terminally amidated
B2: CL-442127 (antibody, V domains shown)
VH: QAQLVESGGGVVQPGKSLRLSCAASRFTFRNYGMHWVRQGPVKGLEWVALIWHDGSNKFYSDSVRDRFTISRDNSKNKLFLQMNSLTADDTALYYCVRSNYDGSGTYGWFGPWGQGTLVTVSS
VL: EIVLTQSPGTLSLSPGERATLSCRASQSVISNYLAWYQQKPGQAPRLLIYGASTRDIGIPDRFSGSGSGTDFTLTISRLEPEDFAVYFCHQYGSSFTFGPGTKVDFK
modifications: peptides N-terminally acetylated and C-terminally amidated
B3: CL-513041 (antibody, V domains shown)
VH: QEHLVESGGGVVQPGRSLRLSCAASGFTFSNSGMHWVRQAPGKGLEWVAVIWYDGSNKFYADSVRGRFTISRDNSNNTLYLQMNSLRAEDTALYYCARDRLFSGSWNWFDPWGQGTLVTVSS
VL: EIVLTQSPATLSLSPGERATLSCRASQSVSTYLAWYQQKPGQAPRLLIYDASNRATGIPARFSGSGSGTDFTLTISSLEPEDFAVYYCQQRSNWFTFGGGTKVEIK
modifications: peptides N-terminally acetylated and C-terminally amidated
B4: CL-444906 (antibody, V domains shown)
VH: QVQLVESGGGVVQPGRSLRLSCTASGFTFSTYGMHWVRQAPGKGLEWVAIIWYDGSNKFYADSVKGRFTISRDNSKDTLYLQMNSLRAEDTAIYYCARAWDKVDDKYGMDVWGQGTTVTVSS
VL: not shown
modifications: peptides N-terminally acetylated and C-terminally amidated
B5: CL-510416 (antibody, V domains shown)
VH: QVQLVESGGGVVQPGRSLRLSCEASGFTFSNYGMHWVRQGPGKGLEWVALMWYDGSNKYYSDSVKGRFTISRDNSKSTLYLQMNSLRAEDTAVYYCARPITGNTHSKYTMDVWGQGTTVTVSS
VL: DIQMTQSPSTLSASVGDRVTITCRASQSISSWLAWYQQKPGKAPKLLIYKASTLESGVPSRFSGSGSGTEFTLTISSLQPDDFATYFCQQYNSYWTFGQGTKVEIK
modifications: peptides N-terminally acetylated and C-terminally amidated
B6: CL-512564 (antibody, V domains shown)
VH: QVQLVESGGGVVQPGRSLRLSCAASGFTFSNSGMHWVRQAPGKGLEWVAIIWYDGSHKFYADSVKGRFTISRDNSKNTLYLQMNSLRIEDTAMYYCVRSYNWNYPVRGDYKYGMDVWGQGTTVTVSS
VL: B5 VL with Y36F, K45N, K50M, T53S, E55Q, F87Y, Y91F, S93T
modifications: peptides N-terminally acetylated and C-terminally amidated
B7: CL-531912 (antibody, V domains shown)
VH: LVQLVESGGGVVQPGRSLRLSCAASGFTFSSSGMHWVRQAPGKGLEWVAIIWYDGSNKFYADSVKGRFTISRDNSKNTLYLQMNSLRAEDTAVYYCARAYVSGSHGDKYGMDVWGQGTTVTVSS
VL: B5 VL with Y36F, T53S, S76N, S93N
modifications: peptides N-terminally acetylated and C-terminally amidated
B8: CL-513701 (antibody, V domains shown)
VH: QVQLVESGGGVVQTGRSLRLSCTASGFIFSNYGMYWVRQAPGKGLEWVALIWYDGSNKYYVDSVKGRFTISRDNSKNTLYLQMNSLRAEDTAVYYCARAGKYSGSGSYLDSWGQGTLVTVSS
VL: B5 VL with T10S, L11V, S28G, K50T, T53S, E55Q, E70D, N92S, S93R
modifications: peptides N-terminally acetylated and C-terminally amidated
B9: CL-513274 (antibody, V domains shown)
VH: QVQLVESGGGVVQPGRSLRVSCAASGFTFSNYGMYWVRQAPGKGLEWVALIWHDGSNKFYEDSVKGRFTISRDNSKNTLYLQMNSLRAEDTAVYYCARAGYFQGSGSFLDYWGQGTLVTVSS
VL: B5 VL with S31T, T53S, N92S
modifications: peptides N-terminally acetylated and C-terminally amidated
B10: Ky15.10 (antibody, V domains shown)
VH: QVQLVESGGGVVQPGRSLRLSCAASGFTFSNSGMHWVRQVPGKGLEWVAIIWYDGSNKYYADSVKGRFSVSRDNSENTLYLQMSNLRAEDTAVYYCVRAYFDSENLYDYYGMDVWGQGTTVTVSS
VL: B5 VL with S31R, Y36F, Q38K, K50T, T53N, F87Y, N92Y, S93N, I105V
modifications: peptides N-terminally acetylated and C-terminally amidated
B11: CL-513462 (antibody, V domains shown)
VH: B9 VH with L50V, S56T
VL: B5 VL with T53S, N92S
modifications: peptides N-terminally acetylated and C-terminally amidated
B12: CL-512870 (antibody, V domains shown)
VH: QVQLVESGGGVVQPGRSLRLSCEASGFTFSHYGMHWVRQAPGRGLEWVAIIWYDGSNTYYRDSVKGRFTISRDNSKDTLFLQMNSLRPDDTAVYYCARALYYDSGSLFDFWGQGTLVTVSS
VL: B5 VL with T53S, S56T, S67F, T74S, F87Y, Q89L, S93I
modifications: peptides N-terminally acetylated and C-terminally amidated
B13: CL-459404 (antibody, V domains shown)
VH: QVQLVASGGGVVQPGRSLRLSCAASGFTFSNYGMHWVRQAPGKGLEWVAIIWYDGSKKYYSDSVKGRFTISRDNSKNTLNLQMNSLRAEDTAVYYCARAYGSGSYSDDYYGMDVWGQGTTVTVSS
VL: B5 VL with S31P, Y36F, T53N, F87Y, N92Y, S93T
modifications: peptides N-terminally acetylated and C-terminally amidated
B14: CL-531969 (antibody, V domains shown)
VH: B7 VH with L1Q, K43M, S104N, H105Y, K108N
VL: B5 VL with Y36F, T53S, S76N, S93Y
modifications: peptides N-terminally acetylated and C-terminally amidated
B15: CL-440582 (antibody, V domains shown)
VH: QVQLVESGGGVVQPGRSLRLSCAASGFTLNNYGIHWVRQAPGKGLEWLSLIWYDGSNKFYADSVKGRFTVSRDNSQNTVSLHMSSLSVDDTAVYYCARPGIGVPGDKYTMDVWGQGTTVTVSS
VL: B5 VL with S28T, S31A, P40L, L46I, T53I, S76N, F87Y, S93Y, Y94D, K106N
modifications: peptides N-terminally acetylated and C-terminally amidated
B16: CL-509940 (antibody, V domains shown)
VH: QVQLVESGGGVVQPGRSLRLSCAASGFTFSTYGMHWVRQAPGKGLEWVAVIWYDGSIKFYADSVKGRFTISRDDSKNTLYLQMNSLRAEDTAVYYCARDGGYSDSGRFGWFDPWGQGNLVTVSS
VL: EIVMTQSPVTLSVSPGERVTLSCRASQSVSSNLAWYQQKPGQAPRLLIYGASNRATGIPDRFSGSGSGTEFSLTVTSLQSEDFAVYYCQQYNQWRTFGQGTKVEIR
modifications: peptides N-terminally acetylated and C-terminally amidated
B17: CL-511771 (antibody, V domains shown)
VH: QVQLVESGGGVVQPGRSLRLSCAASGFTFSNSGMHWVRQAPGKGLEWVAIIWYDGSNKYYAESMKGRFTISRDNSKNTLYLQMNSLRAEDTAVYYCARDGTTNAFDLWGQGTMVTVSP
VL: not shown
modifications: peptides N-terminally acetylated and C-terminally amidated
B18: CL-445635 (antibody, V domains shown)
VH: QVQLVESGGAVVQPGTSLRLSCAASGFTFSNYGMHWVRQAPGKGLQWVALIWYNGNNKFYAESVEGRFIISRDNSKNILFLQMNSLSAEDTAVYYCARAFYYDSGNYLDYWGPGSLVTVSS
VL: DIQMTQSPSSVSASVGDRVTITCRARQDISSRLAWYQQKPGKAPKILIYGASSLQSGVPSRFSASGSGTDFTLTISSLQPEDFATYYCQQANSFPWTFGQGTKVEIK
modifications: peptides N-terminally acetylated and C-terminally amidated
B19: CL-531237 (antibody, V domains shown)
VH: QVQLVESGGGVVQPGTSLRLSCVASGFTFSNFGIHWFRQAPGKGLEWVSLIWYDGKNKFYAESVTGRFTISRDNSKNTVYLQMSSLRAEDTAVYYCARSYYYDSGNYFDYWGQGTLVTVSS
VL: B18 VL with V19I, R26S, D28G, Y36F, K45N, I46F, A51T, A64G, F83S, F94Y
modifications: peptides N-terminally acetylated and C-terminally amidated
B20: CL-512469 (antibody, V domains shown)
VH: QMQLVESGGGVVQPGRSLTLSCEASGFTFSNYGMHWVRQAPGKGLEWVAIIWFDGSHRFYADAVEGRFTISRDNSKNTLFLQMTSLRAEDAAVYYCARVGQFSSSSWGAFDIWGQGTVVTVSS
VL: EIVLTQSPGTLSLSPGESVTLSCRASQIISNTHLAWYQQKPGQAPSLLIYGASSRATGIPDRFSGSGSGTDFTLTISRLEPEDFAVYYCQQYGRLWTFGQGTKVEIK
modifications: peptides N-terminally acetylated and C-terminally amidated
B21: CL-509370 (antibody, V domains shown)
VH: QVQLVESGGGVVQPGRSLRLSCAASGFTFSSYGMHWVRQAPGKGLEWVAVIWYDGSNKFYADSVKGHFTISRDNSKNTLYLQMNSLRAEDTAVYYCARDGRDLRGTGPYFDPWGQGTLVTVSS
VL: EIVMTQSPATLSVSPGERAILSCRASQSVSSNLAWYQQKPGQAPRLLIYGASIRATGIPARFRGSGSGTEFTLTISILQSEDFAVYYCQQYNNWITFGQGTRLEIK
modifications: peptides N-terminally acetylated and C-terminally amidated
B22: CL-444639 (antibody, V domains shown)
VH: QVQLVESGGGVVQPARSLRLSCAASGFTFSSYGMHWVRQAPGKGLEWVAVIWYDGSNKYYADSVKGRFTISRDNSKNTLYLQMNSLRAEDTAVYYCAKVGDFYGSGSYPHYYGMDVWGQGTTVTVSS
VL: not shown
modifications: peptides N-terminally acetylated and C-terminally amidated
B23: CL-512296 (antibody, V domains shown)
VH: QVQLVESGGGVVQPGRSLRLSCAASGFTFSNYGMHWVRQAPGKGLEWVAVIWYDGSKKFYADSVMGRFTISRDNSKNTLVLQMNSLGAEDTAVYYCARDRGYSGYVFDYWGQGTLVTVSS
VL: QSALTQPASVSGSPGQSIAISCTGTSSDVGGYNFVSWYRHHPGKAPKLMIYDVSNRPSGVSNRFSGSKSGNTASLTISGLQAEDEADYYCCSYAGSCSVFGGGTKLTVL
modifications: peptides N-terminally acetylated and C-terminally amidated
B24: CL-531325 (antibody, V domains shown)
VH: QVHLVESGGGVVQPGKSLRLSCAASGFTFSNFGMHWVRQAPGKGLEWVALIWYDGSHKFYADSVQGRFTISRDNSKNTLFLQMNSLRAEDTAIYYCAKVISYGSVNYYNNYKYTMDVWGQGTTVTVSS
VL: not shown
modifications: peptides N-terminally acetylated and C-terminally amidated
B25: CL-510484 (antibody, V domains shown)
VH: QVQLVESGGGVVQPGRSLRLSCAASGFTFSNYGMNWVRQAPGKGLEWMAVIWYDGSNKYYGDSVKGRFTISRDNSKNTLYLQMISLRAEDTAVYFCAKSGEFYGSGSHFDYWGQGTLVTVSS
VL: not shown
modifications: peptides N-terminally acetylated and C-terminally amidated

Target: PfCSP full length (Plasmodium falciparum (isolate NF54), UniProt P19597)
Sequence (P19597 20-375): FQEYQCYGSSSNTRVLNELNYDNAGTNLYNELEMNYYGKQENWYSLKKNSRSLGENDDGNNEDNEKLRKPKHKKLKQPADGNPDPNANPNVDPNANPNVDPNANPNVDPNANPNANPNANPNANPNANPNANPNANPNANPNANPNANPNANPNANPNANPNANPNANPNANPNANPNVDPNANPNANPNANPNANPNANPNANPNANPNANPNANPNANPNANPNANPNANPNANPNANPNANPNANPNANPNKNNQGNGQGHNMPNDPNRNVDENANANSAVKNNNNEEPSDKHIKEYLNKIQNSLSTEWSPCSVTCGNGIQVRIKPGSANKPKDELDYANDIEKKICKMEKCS
Experiment: ELISA AUC

| Binder | binding score |
| --- | --- |
| B1 | 1.86 |
| B2 | 2.3 |
| B3 | 2.13 |
| B4 | 2.6 |
| B5 | 2.57 |
| B6 | 2.14 |
| B7 | 2.64 |
| B8 | 2.54 |
| B9 | 2.23 |
| B10 | 2.17 |
| B11 | 2.47 |
| B12 | 2.23 |
| B13 | 2.4 |
| B14 | 2.5 |
| B15 | 2.6 |
| B16 | 2.09 |
| B17 | 2.64 |
| B18 | 2.4 |
| B19 | 2.18 |
| B20 | 1.99 |
| B21 | 2.09 |
| B22 | 2.4 |
| B23 | 1.86 |
| B24 | 2.55 |
| B25 | 2.03 |
